According to paper PMC2756588:

T1: Abp1, P15891
T1 sequence (P15891 535-592, looked up): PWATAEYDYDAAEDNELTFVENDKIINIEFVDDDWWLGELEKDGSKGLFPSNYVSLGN

T2: Bbc1, P47068
T2 sequence (P47068 1-78, looked up): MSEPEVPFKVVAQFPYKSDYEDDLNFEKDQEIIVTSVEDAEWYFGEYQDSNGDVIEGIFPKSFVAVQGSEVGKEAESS

T3: Boi1, P38041
T3 sequence (P38041 1-86, looked up): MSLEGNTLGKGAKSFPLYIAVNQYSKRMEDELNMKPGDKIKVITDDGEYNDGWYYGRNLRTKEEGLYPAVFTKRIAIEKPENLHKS

T4: Boi2, P39969
T4 sequence (P39969 32-116, looked up): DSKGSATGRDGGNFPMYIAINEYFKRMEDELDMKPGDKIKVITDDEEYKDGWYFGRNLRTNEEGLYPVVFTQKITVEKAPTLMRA

T5: Bud14, P27637
T5 sequence (P27637 247-328, looked up): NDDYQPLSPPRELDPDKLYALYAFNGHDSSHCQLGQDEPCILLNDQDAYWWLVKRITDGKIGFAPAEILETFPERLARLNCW

T6: Bzz1-1, P38822
T6 sequence (P38822 478-572, looked up): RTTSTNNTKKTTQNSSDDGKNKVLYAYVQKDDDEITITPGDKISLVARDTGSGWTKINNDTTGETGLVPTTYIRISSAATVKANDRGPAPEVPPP

T7: Bzz1-2, P38822
T7 sequence (P38822 568-633, looked up): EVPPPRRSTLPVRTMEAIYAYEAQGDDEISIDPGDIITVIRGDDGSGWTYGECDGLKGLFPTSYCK

T8: Cdc25, P04821
T8 sequence (P04821 50-136, looked up): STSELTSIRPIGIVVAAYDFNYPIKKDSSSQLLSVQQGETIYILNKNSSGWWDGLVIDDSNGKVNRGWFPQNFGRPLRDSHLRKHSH

T9: Cyk3, Q07533
T9 sequence (Q07533 1-83, looked up): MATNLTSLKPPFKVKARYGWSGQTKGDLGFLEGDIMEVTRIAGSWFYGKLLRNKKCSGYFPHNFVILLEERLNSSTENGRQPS

T10: Fus1, P11710
T10 sequence (P11710 432-512, looked up): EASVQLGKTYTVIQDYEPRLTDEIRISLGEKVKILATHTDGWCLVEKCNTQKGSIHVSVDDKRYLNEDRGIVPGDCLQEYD

T11: Hof1, Q05080
T11 sequence (Q05080 590-669, looked up): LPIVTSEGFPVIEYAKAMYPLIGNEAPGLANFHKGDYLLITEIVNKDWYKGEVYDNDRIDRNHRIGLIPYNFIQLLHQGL

T12: Hse1, P38753
T12 sequence (P38753 208-285, looked up): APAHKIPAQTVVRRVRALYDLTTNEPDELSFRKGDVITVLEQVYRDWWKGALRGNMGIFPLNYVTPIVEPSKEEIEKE

T13: Lsb1, P53281
T13 sequence (P53281 45-122, looked up): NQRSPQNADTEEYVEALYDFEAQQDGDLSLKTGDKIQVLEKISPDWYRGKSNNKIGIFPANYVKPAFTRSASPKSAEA

T14: Lsb3, P43603
T14 sequence (P43603 385-451, looked up): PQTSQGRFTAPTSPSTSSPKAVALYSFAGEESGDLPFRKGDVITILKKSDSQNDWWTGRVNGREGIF

T15: Lsb4, P32793
T15 sequence (P32793 402-468, looked up): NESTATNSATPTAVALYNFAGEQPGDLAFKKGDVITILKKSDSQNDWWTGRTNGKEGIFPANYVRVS

T16: Myo5, Q04439
T16 sequence (Q04439 1072-1160, looked up): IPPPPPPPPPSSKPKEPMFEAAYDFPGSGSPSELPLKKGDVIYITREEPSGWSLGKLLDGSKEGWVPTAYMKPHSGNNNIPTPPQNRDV

T17: Nbp2, Q12163
T17 sequence (Q12163 103-180, looked up): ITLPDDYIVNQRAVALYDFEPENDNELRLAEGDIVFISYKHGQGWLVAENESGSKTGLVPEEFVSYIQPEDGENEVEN

T18: Pex13, P80667
T18 sequence (P80667 295-386, looked up): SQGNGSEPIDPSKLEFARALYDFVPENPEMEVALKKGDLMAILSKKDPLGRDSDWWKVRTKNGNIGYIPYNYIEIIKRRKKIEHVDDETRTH

T19: Pin3, Q06449
T19 sequence (Q06449 53-122, looked up): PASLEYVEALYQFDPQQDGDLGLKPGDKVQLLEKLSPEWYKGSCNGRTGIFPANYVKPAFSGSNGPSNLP

T20: Sla1-2, P32790
T20 sequence (P32790 60-140, looked up): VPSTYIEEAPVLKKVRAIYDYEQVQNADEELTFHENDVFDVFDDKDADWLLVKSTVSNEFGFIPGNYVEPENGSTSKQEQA

T21: Sla1-3, P32790
T21 sequence (P32790 344-424, looked up): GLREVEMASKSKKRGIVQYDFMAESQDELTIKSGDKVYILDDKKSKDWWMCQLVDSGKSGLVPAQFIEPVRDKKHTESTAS


The binders below were run against T1, Abp1, P15891 (assay: SPOT array). Details: median of control spots 935.

SPOT intensity	Binder
0	TKHKAPPPPPPTAET
0	QPWTDQFEKLEKEVS
0	LYEAMPPTLPHRDWK

Each binder was assayed against T2, Bbc1, P47068 (assay: SPOT array). Details: median of control spots 796.

SPOT intensity	Binder
0	TKHKAPPPPPPTAET
0	QPWTDQFEKLEKEVS
0	LYEAMPPTLPHRDWK

The binders below were run against Bem1-1, P29366 (assay: SPOT array). Details: median of control spots 4282.
Sequence of Bem1-1, P29366 (P29366 55-141): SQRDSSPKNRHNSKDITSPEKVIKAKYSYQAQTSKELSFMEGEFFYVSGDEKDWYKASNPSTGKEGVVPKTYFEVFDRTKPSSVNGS

SPOT intensity	Binder
3	TKHKAPPPPPPTAET
0	QPWTDQFEKLEKEVS
0	LYEAMPPTLPHRDWK

These binders were tested against Bem1-2, P29366 (assay: SPOT array). Details: median of control spots 4347.
Sequence of Bem1-2, P29366 (P29366 139-227): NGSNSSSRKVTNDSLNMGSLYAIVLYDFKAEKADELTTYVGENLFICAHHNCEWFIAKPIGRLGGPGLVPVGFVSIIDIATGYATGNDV

SPOT intensity	Binder
0	TKHKAPPPPPPTAET
0	QPWTDQFEKLEKEVS
1	LYEAMPPTLPHRDWK

Each binder was assayed against T3, Boi1, P38041 (assay: SPOT array). Details: median of control spots 1162.

SPOT intensity	Binder
0	TKHKAPPPPPPTAET
0	QPWTDQFEKLEKEVS
0	LYEAMPPTLPHRDWK

Each binder was assayed against T4, Boi2, P39969 (assay: SPOT array). Details: median of control spots 1161.

SPOT intensity	Binder
1	TKHKAPPPPPPTAET
0	QPWTDQFEKLEKEVS
2	LYEAMPPTLPHRDWK

The binders below were run against T5, Bud14, P27637 (assay: SPOT array). Details: median of control spots 956.

SPOT intensity	Binder
0	TKHKAPPPPPPTAET
2	QPWTDQFEKLEKEVS
0	LYEAMPPTLPHRDWK

These binders were tested against T6, Bzz1-1, P38822 (assay: SPOT array). Details: median of control spots 4446.

SPOT intensity	Binder
762	TKHKAPPPPPPTAET
5	QPWTDQFEKLEKEVS
0	LYEAMPPTLPHRDWK

These binders were tested against T7, Bzz1-2, P38822 (assay: SPOT array). Details: median of control spots 4538.

SPOT intensity	Binder
190	TKHKAPPPPPPTAET
1	QPWTDQFEKLEKEVS
2	LYEAMPPTLPHRDWK

The binders below were run against T8, Cdc25, P04821 (assay: SPOT array). Details: median of control spots 969.

SPOT intensity	Binder
0	TKHKAPPPPPPTAET
4	QPWTDQFEKLEKEVS
0	LYEAMPPTLPHRDWK

The binders below were run against T9, Cyk3, Q07533 (assay: SPOT array). Details: median of control spots 1451.

SPOT intensity	Binder
0	TKHKAPPPPPPTAET
0	QPWTDQFEKLEKEVS
0	LYEAMPPTLPHRDWK

The binders below were run against T10, Fus1, P11710 (assay: SPOT array). Details: median of control spots 1200.

SPOT intensity	Binder
0	TKHKAPPPPPPTAET
0	QPWTDQFEKLEKEVS
0	LYEAMPPTLPHRDWK

What follows are binders tested against GST (assay: SPOT array). Details: median of control spots 978.

SPOT intensity	Binder
0	TKHKAPPPPPPTAET
0	QPWTDQFEKLEKEVS
0	LYEAMPPTLPHRDWK

What follows are binders tested against T11, Hof1, Q05080 (assay: SPOT array). Details: median of control spots 4086.

SPOT intensity	Binder
1	TKHKAPPPPPPTAET
1	QPWTDQFEKLEKEVS
3	LYEAMPPTLPHRDWK

These binders were tested against T12, Hse1, P38753 (assay: SPOT array). Details: median of control spots 1727.

SPOT intensity	Binder
0	TKHKAPPPPPPTAET
0	QPWTDQFEKLEKEVS
2	LYEAMPPTLPHRDWK

Each binder was assayed against T13, Lsb1, P53281 (assay: SPOT array). Details: median of control spots 388.

SPOT intensity	Binder
0	TKHKAPPPPPPTAET
0	QPWTDQFEKLEKEVS
0	LYEAMPPTLPHRDWK

These binders were tested against T14, Lsb3, P43603 (assay: SPOT array). Details: median of control spots 406.

SPOT intensity	Binder
1	TKHKAPPPPPPTAET
0	QPWTDQFEKLEKEVS
0	LYEAMPPTLPHRDWK

Each binder was assayed against T15, Lsb4, P32793 (assay: SPOT array). Details: median of control spots 397.

SPOT intensity	Binder
0	TKHKAPPPPPPTAET
0	QPWTDQFEKLEKEVS
1	LYEAMPPTLPHRDWK

What follows are binders tested against Myo3, P36006 (assay: SPOT array). Details: median of control spots 468.

SPOT intensity	Binder
0	TKHKAPPPPPPTAET
0	QPWTDQFEKLEKEVS
0	LYEAMPPTLPHRDWK

What follows are binders tested against T16, Myo5, Q04439 (assay: SPOT array). Details: median of control spots 471.

SPOT intensity	Binder
1	TKHKAPPPPPPTAET
0	QPWTDQFEKLEKEVS
1	LYEAMPPTLPHRDWK

What follows are binders tested against T17, Nbp2, Q12163 (assay: SPOT array). Details: median of control spots 357.

SPOT intensity	Binder
0	TKHKAPPPPPPTAET
0	QPWTDQFEKLEKEVS
0	LYEAMPPTLPHRDWK

What follows are binders tested against T18, Pex13, P80667 (assay: SPOT array). Details: median of control spots 1341.

SPOT intensity	Binder
0	TKHKAPPPPPPTAET
0	QPWTDQFEKLEKEVS
59	LYEAMPPTLPHRDWK

These binders were tested against T19, Pin3, Q06449 (assay: SPOT array). Details: median of control spots 2171.

SPOT intensity	Binder
0	TKHKAPPPPPPTAET
0	QPWTDQFEKLEKEVS
19	LYEAMPPTLPHRDWK

Each binder was assayed against Rvs167, P39743 (assay: SPOT array). Details: median of control spots 2707.
Sequence of Rvs167, P39743 (P39743 419-482): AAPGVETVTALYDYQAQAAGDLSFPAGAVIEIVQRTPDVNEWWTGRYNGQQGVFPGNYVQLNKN

SPOT intensity	Binder
0	TKHKAPPPPPPTAET
0	QPWTDQFEKLEKEVS
151	LYEAMPPTLPHRDWK

These binders were tested against Sho1, P40073 (assay: SPOT array). Details: median of control spots 1148.
Sequence of Sho1, P40073 (P40073 287-367): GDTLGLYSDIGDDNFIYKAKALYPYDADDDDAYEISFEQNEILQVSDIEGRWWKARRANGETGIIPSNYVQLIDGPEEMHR

SPOT intensity	Binder
0	TKHKAPPPPPPTAET
0	QPWTDQFEKLEKEVS
0	LYEAMPPTLPHRDWK

These binders were tested against T20, Sla1-2, P32790 (assay: SPOT array). Details: median of control spots 712.

SPOT intensity	Binder
1	TKHKAPPPPPPTAET
0	QPWTDQFEKLEKEVS
1	LYEAMPPTLPHRDWK

Each binder was assayed against T21, Sla1-3, P32790 (assay: SPOT array). Details: median of control spots 5475.

SPOT intensity	Binder
0	TKHKAPPPPPPTAET
0	QPWTDQFEKLEKEVS
0	LYEAMPPTLPHRDWK
